# Assay: yeast display, Sf9 membrane polyspecificity reagent, FACS + sequencing; frameworks hold sequencing errors
# Procedure, shortened: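 Galactose induction of a Saccharomyces cerevisiae BJ5465 synthetic nanobody display library ran 36–48 hours. The cells were then stained for 1 hour at 4 °C with 10% biotinylated, detergent-solubilized Sf9 membrane reagent, pulled down on streptavidin microbeads and FACS-sorted into low and high (top ~1%) gates on expression and reagent-binding fluorescence. Labels for polyreactivity follow the gate of origin.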
row,Sequence,polyreactivity (PSR sort gate)
1,QVQLVESGGGIVQAGGSLRLSCGASGSIFVTYTMGWYRQAPGKERELVAAITSDGRTYYADSVKGRFTISRDNAKNTVYLQMNCLKPEDTAVYYCAADSSGYYWFNYWGQGTQVTVSS,low polyreactivity
2,QVQLVESGGGIVQAGGSLRLSFAASGSTFAGYAMGLYREAPGKERELVATFTYSGGSTYYADSVKGRFSISRDNAKNTVYLQMNSLKPEDTAVYYCAKNASYLWGYEYWGQGTQVTVSS,low polyreactivity
3,QVQLVESGGGIVQAGGSLRLSSAASGLTFAYNTMGWYRQAPGIEREFVASISSSGGNTYYADSVKGRFTISRDNAKNTVYLQMHSLKPEDTAVYYCAAKKKYHYVATYKRFENWGQGTHVTVSS,low polyreactivity
4,QVQLVESGGGIVQAGGSLRLSSAASGRIFDTNAMGWYRQAPGKERELVAAITGRGGGTYYADSVKGRFTISRDNAKNTVYLQMNSLKPEDTAVYYCNAFAPIYRHYSWGSGLDYWGQGTLVTVSS,high polyreactivity
5,QVQLVESGGGIVQAGGSLRLSSAASGSIFYYYAKGWYRQAPGKERELVATINISDGSTYYADSVKGRFTISRDNAKNTVYLQMNSLKPEDTAVYYCAAYYYFLDYDYWGQGTQVTVSS,low polyreactivity
6,QVQLVESGGGIVQAGGSLRLTCAASGRIFYYYAMGWYRQAPGKEREFVAASSRSGGSTYYADSVKGRFTISRDNAKNTVYLQMNSLKPEDTAVYYCNAVRSYRGDFKYDWGQGTQVTVSS,high polyreactivity
7,QVQLVESGGGIVQAGGSLRLTCDASGFTFVINDMGRYRQARGKERELVADITSGGDTYYADSVKGRFTISRDNAKNSVYFHRNSLKPEDTAVYFCAADIYPDWIYLLYGYWGQGTQLTVSS,low polyreactivity
8,QVQLVESGGGIVQAGGSLRVSCAASGRTFYSSAMGWYRQAPGKERELVAAISWNGGSTYYADSVKGRFTISRDNAKNTVYLQMNSLNPEDTAVYYCAATYLLRGDAYYSWGQGTQVTVSS,high polyreactivity
9,QVQLVESGGGIVQAGGSLSLSCAASGRTFIRNAIGCYRQAPGKERELVAAINSGGITNYADSVKGRFTISRDNANNTVYLQMNSLKPEDTAVYYCNARQVLYGLYLRAYPYEYWGQGTQVTVSS,low polyreactivity
10,QVQLVESGGGIVQAGGSLSLSCAASGSTFSIYAMGWSRQATGTEREVVAAISGSGSRTYYADSVKGRFTISRDNEKNSVYLQMNMLKPEDTAVYYCAALGRHRDGFDFNYWGQGTQVTLSS,high polyreactivity
11,QVQLVESGGGIVQAGGTLRLSCAASGSTFFYYVMGWYRQAPGKERELVAAITSSGGGTYYADSVKGRFTISRDNAKNTVYLQMKSLKPEDTAVYYCAKPVWWRDYRHGGRFGYWGQGTQVTVSS,low polyreactivity
12,QVQLVESGGGIVQAGRSLRLSCAASGFTFYWYAMGWYRQAPGKERELVAAISWSGGSTYYADSVKGRFTISRDNETNTVYLQMYSLKPEDTAVYYCAADNYFFGDEDYWGQGTQVTVSS,high polyreactivity
13,QVQLVESGGGIVQAGRSLRLSCSASGFIFAIKAMGWYRQAPGKERELVAAITGGGSTSYADSVKGRFTISRDNAKNTVYLQMNSLKPEDTAVYYCATDRLTYTKYGYWGQGTQVTVSS,low polyreactivity
14,QVQLVESGGGIVQAGRSLRLTCAASGITFKAYTMGWYRQAPGKERELVATISRGGRTYADSVKGRFTISRDNAKNTVYLQINSLKPEDTAVYYCAADKYWAQNDYWGQGTQVTVSS,low polyreactivity
15,QVQLVESGGGIVQAVGSLRLSCAASGFTLERYAMVWYRPAPGKERELVAAITQSGVSTYYADSVKGRFTISRDNAKNTVYLQMNSLKPEDTAVYYCNALRIYHHYEYDYWGQGTQVTVSS,high polyreactivity
16,QVQLVESGGGIVQEGRSLSISCAASGSTFYTYAMGWYRPAPGKERELVAAITQSGGRTYYADSVKGRFTISRDNANNTVYLEMNSLKPEDTAVDYCNAPPYTGYDWGQGTQVSVSS,high polyreactivity
17,QVQLVESGGGKVKAGGSLRISCAASGRTYRYAMGWYRQAPGKERELVAAITSGGRTNYADSVKGRFTISRDNAKNTVYLQMNSLKPEDTAVYYCAAQWYTVITSWYGYWGQGTQVTVSS,low polyreactivity
18,QVQLVESGGGKVQAGGSLRLSCAAYGIIFYPYDMGWNRQSPAKERELVAAISIGGGSTYYADSVKGRFTISRDNAKNTVYLQMNSLKPEDNAVYYCAAGTPYGILGYYYWGQGSQVTVSS,low polyreactivity
19,QVQLVESGGGKVQAVGSLRLSCAASGRTFYPYAMGWYRQAPGKERELVAVITWSTGNTYYADSVKGRFTISRDNAKNTVYLQMNSLKPEDTAVYYCAAAYYRYRGTIRYYYWGQGTQVTVSS,high polyreactivity
20,QVQLVESGGGLAQAGGSLRLSCAASGRTFRTYTMGWYRQAPGKERELVAAISWSGSSTYYADSVKGRFTISRDNAKNTVYLQMNSLKPEDTAVYYCAARGLYDYGYWGQGTQVTVSS,high polyreactivity
21,QVQLVESGGGLDHAGGRLRLSCAASGSIFYENVMGWYRQAPGKERELVAGISRSGGRTYYADSVKGSFTISRDYAKNTVYLQMNSLQPVDTAVYYCAALTPRNRYRKFDYWGQGTQVTVSS,high polyreactivity
22,QVQLVESGGGLDLAGGSLRLSCAASGRTFLYYAMGWYRQAPWKDREFVASIRRGGGSTYYADSVKGRFTFSRDNAKHTVYLQMHSLKPVDTAVYYCAAQPYTLSLFRLNYDYWGQGTQVTVSS,low polyreactivity

row,Sequence,polyreactivity (PSR sort gate)
1,QVQLVESGGGLDQAAGSLRLTCAASGTTFEYYAMGLYRQAPAKEREFVAAITGSGASTYYADSVKGRFTISRDNAKNTVYLQMNSLKPEDTAVYYCIALSALAVEDGYWGQGTQVTVSS,low polyreactivity
2,QVQLVESGGGLDQAGGCLRLSCAASGSIFRTYAMGWYRQAPGKERELVADITRRGGSTYYADSVKGRFTISRDNAKYTVNLQLNSLKPEETAVYYCAAYGYTSAGDSARLDYWGQGSQVTVSS,high polyreactivity
3,QVQLVESGGGLDQAGGRLRLSCAASGRTFNVNVMGWYRQSPGKERELVAAIRYTGGSTYADSVKGRFTISRDNAKNTVYLQMNSLKPEDTAVDYCNADTFFPFDHGMDYWGQGTQVTVSS,low polyreactivity
4,QVQLVESGGGLDQAGGSHRLSCAASGRIFYIYTMGWYRQPPGKEREFVAGINWNGGSTYYADSVKGRFTISRDNAKNTVYLQMNSLKPEVTAVYYCNADQYWDRYYYWGQGTQVTVSS,low polyreactivity
5,QVQLVESGGGLDQAGGSLPLSCAASGRTFRYYDRGSYRQAPGKERELVARISISGAGTYYADSVKGRFTISRDNAKNTVYFEMNSLKPEDTAVYYCAADLFWWQKTISGGDYWGQGTQVNVSS,low polyreactivity
6,QVQLVESGGGLDQAGGSLPLTCAASGSIFDPNAMGWYRQAPGKERELVANNTIGGRTNYADSVKGRFTISRDNPKNTVYLQMNSLKPDDTAVFYCAKDSPYTSVTVLAPIIYESWGKGTQVTVSS,low polyreactivity
7,QVQLVESGGGLDQAGGSLRISCAASGRTFRNYAMGSYRQAPGKERELVPAISFSGGRTYYADSVKGRFTISRDNAKNTVYLQMNSLKPEDTAVYYCAKVSYYRGDGDEDYGYWGQGTQVPVSS,high polyreactivity
8,QVQLVESGGGLDQAGGSLRLICAASGITFFPYAMVWYRQAPGKEKELVAAISSGSSTYYADSVKGRFTISRDNAKNTVYLQMNSLKPEDTAVYYCATRRDLHDRYEYDYWGQGTQVTVSS,low polyreactivity
9,QVQLVESGGGLDQAGGSLRLICAASGLTFYLYAMGWYRQAPGKERELVAAISTRGGSTRYADSVKGRFTISRDNAKNTVYLQMNSLKPEDTAVFDCNAVSKWLEYDYWGQGTQVTVSS,high polyreactivity
10,QVQLVESGGGLDQAGGSLRLICAASGSTFYIYAMGWYRQAPGKEREFVAAIDFSGSSTYADSVKGRFTISRDNAKNPVYLQMNTLKPEDTAVYYCAAYQIYQYDGPYDYWGQGTQVTVSS,low polyreactivity
11,QVQLVESGGGLDQAGGSLRLISAASGYVMGWYRQAPEKEKELVATITRGTSTYYADSVKGRFTISRDNAKNTVYFQMNSLKPDDTAVYYCAARTTSGEWPPGNICTYLYDYWGQGTQVTVSS,low polyreactivity
12,QVQLVESGGGLDQAGGSLRLRCAASGSTFYVNAIGWYRQAPGKERELVAAITSTGTTHNADSVKGRFTISRDNAKKTVYLQMNSLKPEDTAVYYCAAGDQYKTRRNGYGYWGQGTQVTVSS,high polyreactivity
13,QVQLVESGGGLDQAGGSLRLSCAASARIYGYYANGWYRQAPGKERELVAAINSGGSTYYADSVKGRFTISRDNAKNTVYLQMNSLKPEDTAVYYCAAYKFSVHGYDYWGQGTQGTVSS,high polyreactivity
14,QVQLVESGGGLDQAGGSLRLSCAASGFIFGRYTMVWYRPAPGKEMELVAAISRGGITNYADSEKGRFTISRDNAKNTVYLQMNSLKPEDTAVYYCATTRDYWRGRSYYYWGQGTQVTVSS,high polyreactivity
15,QVQLVESGGGLDQAGGSLRLSCAASGFIFLDYAMGWYRRAPGKERELVAAISSRGARTYYADSVKGRFTISRDNAKNTFYLQMNSLKPEDTAVYYCAARGPLDRYGYWGQGTQVTVSS,high polyreactivity
16,QVQLVESGGGLDQAGGSLRLSCAASGFIFPGNAMGWYRQAPGKERELVAAISWRVGRTYYADSVKGRFTISRDNAKNTVYLQMNSLKPEDTAVYYCAVARSSPEYYYWGQGTQVTVSS,high polyreactivity
17,QVQLVESGGGLDQAGGSLRLSCAASGFIFRSYTMGWYRQEPRKEREFVPAITWTGGSTYYADSVKGRFTISRDNAKNTVYLQMNSLKPEDTAVYYCNAANWHYSTAPKPYAFDYWGQGTQVTVSS,low polyreactivity
18,QVQLVESGGGLDQAGGSLRLSCAASGFIYSSYGMGWYRQAPGKERELDAAISRSGGSTYYADSVKGRFTISRDNAKNTVYLEMNSLKPEDTAVYYCATAYSWRNADWFAYSYDYWGQGTQVTVSS,low polyreactivity
19,QVQLVESGGGLDQAGGSLRLSCAASGFTFGSNAMGWYRQAPGKERELVASITTRGGSTYYADSVKGRFTISRDNANNTVYLQMNSLKPEDTAVYYCAARARYPNWTYYYWGQGTQVTVSS,high polyreactivity
20,QVQLVESGGGLDQAGGSLRLSCAASGFTFRKNAMGWYRQAPGKERELVAVISYSGGSTYYADSVNGRFTISRDSANNTVYLQMNSQKPEDSAVYYCNAVGWTRYWRIGWSAYYYWGQGTQVTVSS,high polyreactivity
21,QVQLVESGGGLDQAGGSLRLSCAASGFTFRYYAMGWYRQAPRKERELVAAIRRGGTTNYADSVKGRFTISRDNAKNTVYLQMNSLKPEDTAVYYCANYRYGYDYWGQGTQVTVSS,high polyreactivity

# — the nanobody polyreactivity screen of Harvey et al. (2022)
